{"source": "patent US20220204585A1", "about": "(RUSH UNIVERSITY MEDICAL CENTER, published 2022)", "binders": {"B1": {"name": "Clone 14 149-014-14 (VK-Linker-VH) (scFv)", "scFv": "DVVMTQSPLSLPATLGQPASISCRSSQSLVYTDGNTYLNWFQQRPGQSPRRLIYKVSNRDSGVPDRFSGSGSGTHFTLKISRVEAEDVGVYYCMQGTHWPPTFGQGTKVEIKEGKSSGSGSESKASEVQLVQSGAEVKKPGASVKVSCKASGGTFSSYAISWVRQAPGQGLEWMGGIIPIFGTANYAQKFQGRVTITADESTSTAYMELSSLRSEDTAVYYCASSGVDYWGQGTLVTVSS", "notes": "From the naive human scFv phage display library"}, "B2": {"name": "Clone 5 149-014-5 (VL-Linker-VH) (scFv)", "scFv": "SSELTQDPAVSVALGQTVRITCQGDSLRSYYASWYQQKPGQAPVLVIYGKNNRPSGIPDRFSGSTSGNFASLTITGAQAEDGADYYCHSRDSSGNHLVFGGGTKLTVLGEGKSSGSGSESKASEVQLVQSGAEVKKPGESLKISCKGSGYSFTSYWIGWVRQMPGKGLEWMGIIYPGDSDTRYSPSFQGQVTISADKSISTAYLQWSSLKASDTAMYYCARRARGAFDIWGQGTLVTVSS", "notes": "as for B1"}, "B3": {"name": "Clone 6 149-014-6 (VL-linker-VH) (scFv)", "scFv": "QSVLTQPPSASGTPGQRVTISCSGSSSNIGSNYVSWYQQLPGTAPKLLIYDNNKRPSGIPDRFSGSKSGTSATLGITGLQTGDEADYYCGTWDSSLSALYVFGAGTKLTVLGEGKSSGSGSESKASQVQLQESGPGLVKPSETLSLTCSVSGGSTSSYYWSWIRQPPGKGLEWIGYISNSGSTNYNPSLKSRVTMSIDTSNNQFSLKLSSVTAADTAVYYCASHLGATWRWGQGTLVTVSS", "notes": "as for B1"}, "B4": {"name": "Clone 13 149-014-13 VH only (other)", "VH": "EVQLLESGGGLVQPGGSLRLSCAASGFTFSSDLMSWVRQAPGKGLEWVSAISGSGGSTYYADSVKGRFTISRDNSKNTLYLQMNSLRAEDTAVYYCAKNEVIFDYWGQGTLVTVSSASTKGLSMFDYWGQGTKVEIK"}}, "key": {"[1]": {"target": "T1, CD11b A-domain CD11bA WT (WT residues 132-321), construct BZ348007 (human, UniProt P11215 148-337)", "T1 construct": "Residues numbered on mature CD11b (signal peptide of 16 residues removed); also called His-TEV-CD11b", "experiment": "counterscreen phage ELISA on coated antigen", "description": "(§1) After 2 rounds of enrichment against the primary target, positive binders were identified by phage ELISA and analyzed by restriction mapping & sequencing for identification of unique clones. Small scale phage growths were diluted 1:5 in TBS+casein. Nunc Maxi-Sorp strip wells were coated at ˜5 ug/ml of each test protein overnight at 4° C. and blocked with TBS+casein. The diluted phage were applied and allowed to bind for 1 hour with shaking. The wells were washed 4 times with TBS+0.05% Tween20 and twice with TBS. Bound phage were detected by incubation for 1 hour with anti-M13-HRP and after washing as above, developed with TMB. Absorbance at 450 nm was read after acidification of the wells."}, "[2]": {"target": "T2, CD11b A-domain CD11bA-D140A, construct BZ348008 (human, UniProt P11215 148-337)", "T2 construct": "MIDAS residue D140 replaced with alanine (no MIDAS metal)", "T2 chain": "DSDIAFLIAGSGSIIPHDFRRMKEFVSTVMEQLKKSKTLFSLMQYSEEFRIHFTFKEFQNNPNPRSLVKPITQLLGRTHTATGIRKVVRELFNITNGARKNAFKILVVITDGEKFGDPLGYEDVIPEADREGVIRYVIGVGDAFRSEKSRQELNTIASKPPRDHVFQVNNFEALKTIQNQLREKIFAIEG", "experiment": "counterscreen phage ELISA on coated antigen", "description": "as §1"}, "[3]": {"target": "T3, CD11b A-domain CD11bA-D140A/F275S/F302G, construct BZ348010 (human, UniProt P11215 148-337)", "T3 chain": "T2 chain with F144S, F171G", "experiment": "counterscreen phage ELISA on coated antigen", "description": "as §1"}, "[4]": {"target": "T4, CD11b A-domain CD11bA-D242A, construct BZ348011 (human, UniProt P11215 148-337)", "T4 construct": "MIDAS residue D242 replaced with alanine (no MIDAS metal)", "T4 chain": "T2 chain with A9D, D111A", "experiment": "counterscreen phage ELISA on coated antigen", "description": "as §1"}, "[5]": {"target": "T5, CD11b A-domain CD11bA-F275S/F302G, construct BZ348013 (human, UniProt P11215 148-337)", "T5 chain": "T2 chain with A9D, F144S, F171G", "experiment": "counterscreen phage ELISA on coated antigen", "description": "as §1"}, "[6]": {"target": "T6, CD11b A-domain CD11bA-D242A/F275S/F302G, construct BZ348014 (human, UniProt P11215 148-337)", "T6 construct": "the antigen on which the libraries were enriched; also called BZ348014 antigen", "T6 chain": "T2 chain with A9D, D111A, F144S, F171G", "experiment": "counterscreen phage ELISA on coated antigen", "description": "as §1"}, "[7]": {"target": "T1, CD11b A-domain CD11bA WT (WT residues …)", "experiment": "phage ELISA dilution series, phage diluted 1:5"}, "[8]": {"target": "T2, CD11b A-domain CD11bA-D140A, construct …", "experiment": "phage ELISA dilution series, phage diluted 1:5"}, "[9]": {"target": "T3, CD11b A-domain …", "experiment": "phage ELISA dilution series, phage diluted 1:5"}, "[10]": {"target": "T4, CD11b A-domain CD11bA-D242A, construct …", "experiment": "phage ELISA dilution series, phage diluted 1:5"}, "[11]": {"target": "T5, CD11b A-domain CD11bA-F275S/F302G, …", "experiment": "phage ELISA dilution series, phage diluted 1:5"}, "[12]": {"target": "T6, CD11b A-domain …", "experiment": "phage ELISA dilution series, phage diluted 1:5"}, "[13]": {"target": "T1, CD11b A-domain CD11bA WT (WT residues …)", "experiment": "phage ELISA dilution series, phage diluted 1:16"}, "[14]": {"target": "T2, CD11b A-domain CD11bA-D140A, construct …", "experiment": "phage ELISA dilution series, phage diluted 1:16"}, "[15]": {"target": "T3, CD11b A-domain …", "experiment": "phage ELISA dilution series, phage diluted 1:16"}, "[16]": {"target": "T4, CD11b A-domain CD11bA-D242A, construct …", "experiment": "phage ELISA dilution series, phage diluted 1:16"}, "[17]": {"target": "T5, CD11b A-domain CD11bA-F275S/F302G, …", "experiment": "phage ELISA dilution series, phage diluted 1:16"}, "[18]": {"target": "T6, CD11b A-domain …", "experiment": "phage ELISA dilution series, phage diluted 1:16"}, "[19]": {"target": "T1, CD11b A-domain CD11bA WT (WT residues …)", "experiment": "phage ELISA dilution series, phage diluted 1:50"}, "[20]": {"target": "T2, CD11b A-domain CD11bA-D140A, construct …", "experiment": "phage ELISA dilution series, phage diluted 1:50"}, "[21]": {"target": "T3, CD11b A-domain …", "experiment": "phage ELISA dilution series, phage diluted 1:50"}, "[22]": {"target": "T4, CD11b A-domain CD11bA-D242A, construct …", "experiment": "phage ELISA dilution series, phage diluted 1:50"}, "[23]": {"target": "T5, CD11b A-domain CD11bA-F275S/F302G, …", "experiment": "phage ELISA dilution series, phage diluted 1:50"}, "[24]": {"target": "T6, CD11b A-domain …", "experiment": "phage ELISA dilution series, phage diluted 1:50"}, "[25]": {"target": "T6, CD11b A-domain …", "experiment": "phage ELISA, phage diluted 1:5 on coated antigen (~5 ug/ml), anti-M13-HRP", "description": "as §1"}}, "note": "Where a chain is given by its changes, count along the chain named.", "data": [{"binder": "B1", "values": [{"measurement": "Absorbance at 450 nM", "setting": "[1]", "value": 0.22}, {"measurement": "Absorbance at 450 nM", "setting": "[2]", "value": 0.38}, {"measurement": "Absorbance at 450 nM", "setting": "[3]", "value": 0.659}, {"measurement": "Absorbance at 450 nM", "setting": "[4]", "value": 0.259}, {"measurement": "Absorbance at 450 nM", "setting": "[5]", "value": 0.953}, {"measurement": "Absorbance at 450 nM", "setting": "[6]", "value": 1.06}, {"measurement": "Absorbance at 450 nM", "setting": "[7]", "value": 0.557}, {"measurement": "Absorbance at 450 nM", "setting": "[8]", "value": 0.372}, {"measurement": "Absorbance at 450 nM", "setting": "[9]", "value": 0.046}, {"measurement": "Absorbance at 450 nM", "setting": "[10]", "value": 0.2}, {"measurement": "Absorbance at 450 nM", "setting": "[11]", "value": 1.38}, {"measurement": "Absorbance at 450 nM", "setting": "[12]", "value": 0.782}, {"measurement": "Absorbance at 450 nM", "setting": "[13]", "value": 0.101}, {"measurement": "Absorbance at 450 nM", "setting": "[14]", "value": 0.08}, {"measurement": "Absorbance at 450 nM", "setting": "[15]", "value": 0.038}, {"measurement": "Absorbance at 450 nM", "setting": "[16]", "value": 0.054}, {"measurement": "Absorbance at 450 nM", "setting": "[17]", "value": 0.278}, {"measurement": "Absorbance at 450 nM", "setting": "[18]", "value": 0.356}, {"measurement": "Absorbance at 450 nM", "setting": "[19]", "value": 0.06}, {"measurement": "Absorbance at 450 nM", "setting": "[20]", "value": 0.047}, {"measurement": "Absorbance at 450 nM", "setting": "[21]", "value": 0.04}, {"measurement": "Absorbance at 450 nM", "setting": "[22]", "value": 0.045}, {"measurement": "Absorbance at 450 nM", "setting": "[23]", "value": 0.078}, {"measurement": "Absorbance at 450 nM", "setting": "[24]", "value": 0.059}, {"measurement": "Absorbance at 450 nM", "setting": "[25]", "value": 0.598}]}, {"binder": "B2", "values": [{"measurement": "Absorbance at 450 nM", "setting": "[1]", "value": 1.78}, {"measurement": "Absorbance at 450 nM", "setting": "[2]", "value": 1.85}, {"measurement": "Absorbance at 450 nM", "setting": "[3]", "value": 1.74}, {"measurement": "Absorbance at 450 nM", "setting": "[4]", "value": 1.77}, {"measurement": "Absorbance at 450 nM", "setting": "[5]", "value": 1.65}, {"measurement": "Absorbance at 450 nM", "setting": "[6]", "value": 1.69}, {"measurement": "Absorbance at 450 nM", "setting": "[25]", "value": 1.37}]}, {"binder": "B3", "values": [{"measurement": "Absorbance at 450 nM", "setting": "[1]", "value": 0.567}, {"measurement": "Absorbance at 450 nM", "setting": "[2]", "value": 0.058}, {"measurement": "Absorbance at 450 nM", "setting": "[3]", "value": 1.51}, {"measurement": "Absorbance at 450 nM", "setting": "[4]", "value": 0.169}, {"measurement": "Absorbance at 450 nM", "setting": "[5]", "value": 1.3}, {"measurement": "Absorbance at 450 nM", "setting": "[6]", "value": 1.25}, {"measurement": "Absorbance at 450 nM", "setting": "[25]", "value": 0.641}]}, {"binder": "B4", "values": [{"measurement": "Absorbance at 450 nM", "setting": "[1]", "value": 0.169}, {"measurement": "Absorbance at 450 nM", "setting": "[2]", "value": 0.228}, {"measurement": "Absorbance at 450 nM", "setting": "[3]", "value": 0.495}, {"measurement": "Absorbance at 450 nM", "setting": "[4]", "value": 0.183}, {"measurement": "Absorbance at 450 nM", "setting": "[5]", "value": 0.954}, {"measurement": "Absorbance at 450 nM", "setting": "[6]", "value": 0.866}, {"measurement": "Absorbance at 450 nM", "setting": "[25]", "value": 0.499}]}]}
